Data from US20130136756A1.

Experiments:
[1] = target: 24P4C12 (human) (UniProt Q53GD3); experiment: FACS on LNCaP cells, ADC at 0.293 nM
[2] = target: 24P4C12 (human) (UniProt Q53GD3); experiment: FACS saturation binding on LNCaP cells (endogenous 24P4C12), one site fit
[3] = target: 24P4C12 (human) (UniProt Q53GD3); experiment: FACS on LNCaP cells, ADC at 160.000 nM
[4] = target: 24P4C12 (human) (UniProt Q53GD3); experiment: FACS on LNCaP cells, ADC at 0.033 nM
[5] = target: 24P4C12 (human) (UniProt Q53GD3); experiment: FACS on LNCaP cells, ADC at 7.901 nM
[6] = target: 24P4C12 (human) (UniProt Q53GD3); experiment: FACS on LNCaP cells, ADC at 0.011 nM
[7] = target: 24P4C12 (human) (UniProt Q53GD3); experiment: FACS on LNCaP cells, ADC at 0.878 nM
[8] = target: 24P4C12 (human) (UniProt Q53GD3); experiment: FACS on LNCaP cells, ADC at 106.667 nM
[9] = target: 24P4C12 (human) (UniProt Q53GD3); experiment: FACS on LNCaP cells, ADC at 71.111 nM
[10] = target: 24P4C12 (human) (UniProt Q53GD3); experiment: FACS on LNCaP cells, ADC at 2.634 nM
[11] = target: 24P4C12 (human) (UniProt Q53GD3); experiment: FACS on LNCaP cells, ADC at 23.704 nM
[12] = target: 24P4C12 (human) (UniProt Q53GD3); experiment: FACS on LNCaP cells, ADC at 0.098 nM

UniProt Q53GD3, sequence (Q53GD3 whole entry): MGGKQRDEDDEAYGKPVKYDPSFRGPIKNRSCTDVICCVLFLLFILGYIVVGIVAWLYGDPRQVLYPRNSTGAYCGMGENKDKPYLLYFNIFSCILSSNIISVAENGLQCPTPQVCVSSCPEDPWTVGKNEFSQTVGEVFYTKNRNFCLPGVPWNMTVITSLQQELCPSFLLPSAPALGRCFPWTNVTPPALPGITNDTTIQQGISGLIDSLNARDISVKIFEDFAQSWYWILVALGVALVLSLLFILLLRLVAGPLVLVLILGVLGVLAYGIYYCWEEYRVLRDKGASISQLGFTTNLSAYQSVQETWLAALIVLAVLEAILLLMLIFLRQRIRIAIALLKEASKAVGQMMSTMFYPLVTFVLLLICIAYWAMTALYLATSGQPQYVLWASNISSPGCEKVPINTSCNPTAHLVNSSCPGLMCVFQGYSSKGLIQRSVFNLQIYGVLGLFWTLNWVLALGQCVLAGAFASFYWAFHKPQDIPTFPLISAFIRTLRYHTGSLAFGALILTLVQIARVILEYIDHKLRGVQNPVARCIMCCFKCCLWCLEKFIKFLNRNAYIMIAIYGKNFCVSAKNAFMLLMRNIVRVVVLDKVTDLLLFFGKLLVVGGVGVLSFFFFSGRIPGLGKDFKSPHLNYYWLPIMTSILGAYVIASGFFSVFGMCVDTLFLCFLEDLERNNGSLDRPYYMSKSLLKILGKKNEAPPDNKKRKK

B1: Ha5-1(5)2.1vcMMAE (protein)
heavy: QVQLVESGGGVVQPGRSLRLSCAASGFTFSSYGMHWVRQAPGKGLEWVAVMSYDGSKKFYTDSVKGRFTISRDNSKNTLYLQMNSLRAEDTAVYYCARDGGDYVRYHYYGMDVWGQGTTVTVSSASTKGPSVFPLAPCSRSTSESTAALGCLVKDYFPEPVTVSWNSGALTSGVHTFPAVLQSSGLYSLSSVVTVPSSNFGTQTYTCNVDHKPSNTKVDKTVERKCCVECPPCPAPPVAGPSVFLFPPKPKDTLMISRTPEVTCVVVDVSHEDPEVQFNWYVDGVEVHNAKTKPREEQFNSTFRVVSVLTVVHQDWLNGKEYKCKVSNKGLPAPIEKTISKTKGQPREPQVYTLPPSREEMTKNQVSLTCLVKGFYPSDIAVEWESNGQPENNYKTTPPMLDSDGSFFLYSKLTVDKSRWQQGNVFSCSVMHEALHNHYTQKSLSLSPGK
light: DIQMTQSPSTLSASIGDRVTITCRASQGISYYLAWYQQKPGKIPKLLIYDTSSLQSGVPSRFSGSRSGTDLSLTISSLQPEDVATYYCQRYDSAPLTFGGGTKVEIKRTVAAPSVFIFPPSDEQLKSGTASVVCLLNNFYPREAKVQWKVDNALQSGNSQESVTEQDSKDSTYSLSSTLTLSKADYEKHKVYACEVTHQGLSSPVTKSFNRGEC
modifications: vcMMAE (Val-Cit linker, monomethyl auristatin E) on cysteine thiols after partial TCEP reduction; p about 3.6 per antibody; positions not given
**Q.** For B1, which MFI [1] is on record?
**A.** 28 MFI

**Q.** And the Kd [2]?
**A.** 1.05 nM

**Q.** What about the MFI [3] of the same binder?
**A.** 116 MFI

**Q.** What about the MFI [4] of the same binder?
**A.** 9 MFI

**Q.** What about the MFI [5] of the same binder?
**A.** 86 MFI

**Q.** What about the MFI [6] of the same binder?
**A.** 7 MFI

**Q.** And the MFI [7]?
**A.** 54 MFI

**Q.** And the MFI [8]?
**A.** 114 MFI

**Q.** And the MFI [9]?
**A.** 108 MFI

**Q.** And the MFI [10]?
**A.** 70 MFI

**Q.** And the MFI [11]?
**A.** 97 MFI

**Q.** What about the MFI [12] of the same binder?
**A.** 15 MFI
